Measured values reported in patent US20170306005A1 (NASCIENT, published 2017).

Key:
[1] = molecular target: T1, human tenascin-C rCd4-His-FBG (rat; human, UniProt P05540 207-392, limits assumed); experiment: SPR off-rate screen, captured IgG4 supernatant, 25 C
T1 construct: domain: domains 3 and 4; C-terminal FBG fusion; biotinylated in the ELISA and HTRF screens; also called Hu TNC; human TNC rCd4-His-FBG; not shown: 6His tag
T1 sequence (chain (part 1 of 2)): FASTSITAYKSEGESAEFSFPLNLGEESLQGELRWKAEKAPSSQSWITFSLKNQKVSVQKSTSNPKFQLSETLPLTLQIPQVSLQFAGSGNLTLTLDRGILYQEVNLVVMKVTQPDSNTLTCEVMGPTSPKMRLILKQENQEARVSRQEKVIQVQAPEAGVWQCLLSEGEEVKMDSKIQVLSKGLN
T1 sequence (chain (part 2 of 2)): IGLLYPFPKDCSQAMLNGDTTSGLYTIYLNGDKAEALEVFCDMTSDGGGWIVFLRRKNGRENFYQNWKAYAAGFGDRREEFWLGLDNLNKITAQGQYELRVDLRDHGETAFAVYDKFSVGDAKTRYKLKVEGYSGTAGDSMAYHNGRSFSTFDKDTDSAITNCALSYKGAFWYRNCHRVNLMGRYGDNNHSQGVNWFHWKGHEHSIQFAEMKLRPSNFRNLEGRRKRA
Protocol: (§1) The 31 scFv of interest were sub-cloned into a human IgG4 expression vector for generation of antibodies as human IgG4 with a hinge-stabilising mutation (S241P; Angal et al, 1993). […] Briefly, surface plasmon resonance (SPR) experiments were performed using a BIAcore T100 instrument and followed the protocol according to the Human antibody capture kit protocol (GE, BR-1008-39). For off-rate screening, 10,000 response units (RU) of anti-human Fc IgG (GE, BR-1008-39) was immobilised on flow-cells (FC1 and FC2) of a Series 5 CM5 dextran sensor chip (BR-1005-30) using EDC/NHS cross-linking chemistry according to the amine coupling kit protocol (GE, BR-1000-50). Culture supernatants containing expressed IgG4 were diluted 1:2 with 2×PBS-T and injected into FC2 (flowrate 5 μl/min, 60 s contact time) to enable antibody capture at 25° C. […] A fixed concentration of antigen (15 nM of human and mouse TNC rCd4-His-FBG and 100 nM of human TNR rCd4-His-FBG) was injected with a flow-path via FC 1 (reference flow cell) and FC 2 (antibody capture flow cell), with a flow rate of 30 μl/min, and the association and dissociation phases measured over 1 and 5 min time periods, respectively. Regeneration of the binding surface employed 3M MgCl₂ with 30 s contact time. Off rates were determined by reference cell subtraction and fitting the sensogram experimental data assuming a 1:1 interaction using BIAevaluation software (GE, BR-1005-97).

[2] = molecular target: T2, mouse tenascin-C rCd4-His-FBG (rat; mouse, UniProt P05540 207-392, limits assumed); experiment: as above
T2 construct: domain: domains 3 and 4; C-terminal FBG fusion; biotinylated in the ELISA screen; also called Mu TNC; mouse TNC rCd4-His-FBG; not shown: 6His tag
T2 sequence (chain (part 1 of 2)): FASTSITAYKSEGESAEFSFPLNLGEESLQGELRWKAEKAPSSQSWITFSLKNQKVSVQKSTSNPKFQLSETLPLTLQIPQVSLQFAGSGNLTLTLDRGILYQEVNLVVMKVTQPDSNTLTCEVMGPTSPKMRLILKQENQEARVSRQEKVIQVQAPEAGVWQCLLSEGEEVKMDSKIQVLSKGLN
T2 sequence (chain (part 2 of 2)): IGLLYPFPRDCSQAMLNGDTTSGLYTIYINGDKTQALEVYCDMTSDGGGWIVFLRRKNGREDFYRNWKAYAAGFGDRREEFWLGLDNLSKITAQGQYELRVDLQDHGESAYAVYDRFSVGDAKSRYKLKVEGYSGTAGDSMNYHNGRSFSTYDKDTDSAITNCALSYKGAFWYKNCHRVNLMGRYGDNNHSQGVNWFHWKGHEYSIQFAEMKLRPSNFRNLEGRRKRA
Protocol: as §1

B1: 165_13_A4 human IgG4 (antibody, V domains shown)
VH: QVQLVESGGGLVQPGRSLRLSCAASGFTFDDYAMHWVRQAPGKGLEWVSGISGSGGSTYYADSVKGRFTISRDNAKNSLYLQMNSLRAEDTALYYCAKDKYPVLDTFDIWGQGTMVTVSS
VL: DIQMTQSPASLPTPVGDRVTITCRASQYIQGFLNWYQQKPGKAPKLLIYDASNLETGVPSRFSGSGSGTDFTLTISSLQPEDFATYYCQQSYSTPQTFGQGTKVDIKR
notes: human IgG4 with hinge S241P
koff [1]: 0.000872 s⁻¹
koff [2]: 0.00797 s⁻¹

B2: 161_01_C11 human IgG4 (antibody, V domains shown)
VH: EVRLVQSGAEVKKPGASVKVSCKVSGYTLTELSMHWVRQAPGKGLEWMGGFDPEDGETIYAQKFQGRVTMTEDTSTDTAYMELSSLRSEDTAVYYCATAQKEWLPDVTWGQGTLVTVSS
VL: DIQMTQSPASLPTSVGDRVTITCRASQYIQGFLNWYQQKPGKAPRLLIYAASTLQDGVPSRFSGSGYGTDFTLTISSLQPEDFATYYCQQSYSTPWTFGQGTKVEIKR
notes: human IgG4 with hinge S241P; also called Antibody 161 01 C11 (derived from 2A5)
koff [1]: 2.2e-07 s⁻¹

B3: 162_02_F4 human IgG4 (antibody, V domains shown)
VH: EVRLVQSGAEVKKPGASVKVSCKVSGYTLTELSMHWVRQAPGKGLEWMGGFDPEDGETIYAQKFQGRVTMTEDTSTDTAYMELSSLRSEDTAVYYCATAQKETYALTYWGQGTLVTVSS
VL: DIQMTQSPASLPTSVGDRVTITCRASQYIQGFLNWYQQKPGKAPRLLIYAASTLQDGVPSRFSGSGYGTDFTLTISSLQPEDFATYYCMHHYRSPWTFGQGTKVEIKR
notes: human IgG4 with hinge S241P; also called Antibody 162 02 F4 (derived from 2A5)
koff [1]: 5.9e-07 s⁻¹
koff [2]: 0.001 s⁻¹

B4: 163_02_A12 human IgG4 (antibody, V domains shown)
VH: EVRLVQSGAEVKKPGASVKVSCKVSGYTLTELSMHWVRQAPGKGLEWMGGFDPEDGETIYAQKFQGRVTMTEDTSTDTAYMELSSLRSEDTAVYYCATAQKETYALTYWGQGTLVTVSS
VL: DIQMTQSPASLPTSVGDRVTITCRASQYIQGFLNWYQQKPGKAPRLLIYAASTLQDGVPSRFSGSGYGTDFTLTISSLQPEDFATYYCLHHYREPWTFGQGTKVEIKR
notes: human IgG4 with hinge S241P; also called Antibody 163 02 A12 (derived from 2A5)
koff [1]: 3.2e-07 s⁻¹
koff [2]: 0.00094 s⁻¹

B5: 165_13_B3 human IgG4 (antibody, V domains shown)
VH: QVQLVESGGGLVQPGRSLRLSCAASGFTFDDYAMHWVRQAPGKGLEWVSGISGSGGSTYYADSVKGRFTISRDNAKNSLYLQMNSLRAEDTALYYCAKALARGHDTFDIWGQGTMVTVSS
VL: DIQMTQSPASLPTPVGDRVTITCRASQYIQGFLNWYQQKPGKAPKLLIYDASNLETGVPSRFSGSGSGTDFTLTISSLQPEDFATYYCQQSYSTPQTFGQGTKVDIKR
notes: human IgG4 with hinge S241P
koff [1]: 1.4e-06 s⁻¹
koff [2]: 0.03 s⁻¹

B6: 160_01_D6 human IgG4 (antibody, V domains shown)
VH: EVRLVQSGAEVKKPGASVKVSCKVSGYTLTELSMHWVRQAPGKGLEWMGGFDPEDGETIYAQKFQGRVTMTEDTSTDTAYMELSSLRSEDTAVYYCATAQADPHLFTYWGQGTLVTVSS
VL: DIQMTQSPASLPTSVGDRVTITCRASQYIQGFLNWYQQKPGKAPRLLIYAASTLQDGVPSRFSGSGYGTDFTLTISSLQPEDFATYYCQQSYSTPWTFGQGTKVEIKR
notes: human IgG4 with hinge S241P; also called Antibody 160 01 D6 (derived from 2A5)
koff [1]: 1.05e-05 s⁻¹
koff [2]: 0.0559 s⁻¹

B7: 160_01_H4 human IgG4 (antibody, V domains shown)
VH: EVRLVQSGAEVKKPGASVKVSCKVSGYTLTELSMHWVRQAPGKGLEWMGGFDPEDGETIYAQKFQGRVTMTEDTSTDTAYMELSSLRSEDTAVYYCATGRFVWEALTYWGQGTLVTVSS
VL: DIQMTQSPASLPTSVGDRVTITCRASQYIQGFLNWYQQKPGKAPRLLIYAASTLQDGVPSRFSGSGYGTDFTLTISSLQPEDFATYYCQQSYSTPWTFGQGTKVEIKR
notes: human IgG4 with hinge S241P; also called Antibody 160 01 H4 (derived from 2A5)
koff [1]: 1.6e-05 s⁻¹
koff [2]: 0.0171 s⁻¹

B8: 162_02_C1 human IgG4 (antibody, V domains shown)
VH: EVRLVQSGAEVKKPGASVKVSCKVSGYTLTELSMHWVRQAPGKGLEWMGGFDPEDGETIYAQKFQGRVTMTEDTSTDTAYMELSSLRSEDTAVYYCATAQKETYALTYWGQGTLVTVSS
VL: DIQMTQSPASLPTSVGDRVTITCRASQYIQGFLNWYQQKPGKAPRLLIYAASTLQDGVPSRFSGSGYGTDFTLTISSLQPEDFATYYCLHHYRAPWTFGQGTKVEIKR
notes: human IgG4 with hinge S241P; also called Antibody 162 02 C1 (derived from 2A5)
koff [1]: < 1e-05 s⁻¹
koff [2]: 0.0016 s⁻¹

B9: 163_02_D11 human IgG4 (antibody, V domains shown)
VH: EVRLVQSGAEVKKPGASVKVSCKVSGYTLTELSMHWVRQAPGKGLEWMGGFDPEDGETIYAQKFQGRVTMTEDTSTDTAYMELSSLRSEDTAVYYCATAQKETYALTYWGQGTLVTVSS
VL: DIQMTQSPASLPTSVGDRVTITCRASQYIQGFLNWYQQKPGKAPRLLIYAASTLQDGVPSRFSGSGYGTDFTLTISSLQPEDFATYYCLHHYKSPWTFGQGTKVEIKR
notes: human IgG4 with hinge S241P; also called Antibody 163 02 D11 (derived from 2A5)
koff [1]: 3.2e-07 s⁻¹
koff [2]: 0.00098 s⁻¹

B10: 160_01_E3 human IgG4 (antibody, V domains shown)
VH: EVRLVQSGAEVKKPGASVKVSCKVSGYTLTELSMHWVRQAPGKGLEWMGGFDPEDGETIYAQKFQGRVTMTEDTSTDTAYMELSSLRSEDTAVYYCATQRYVWEALTYWGQGTLVTVSS
VL: DIQMTQSPASLPTSVGDRVTITCRASQYIQGFLNWYQQKPGKAPRLLIYAASTLQDGVPSRFSGSGYGTDFTLTISSLQPEDFATYYCQQSYSTPWTFGQGTKVEIKR
notes: human IgG4 with hinge S241P; also called Antibody 160 01 E3 (derived from 2A5)
koff [2]: 0.0559 s⁻¹

B11: 165_13_E1 human IgG4 (antibody, V domains shown)
VH: QVQLVESGGGLVQPGRSLRLSCAASGFTFDDYAMHWVRQAPGKGLEWVSGISGSGGSTYYADSVKGRFTISRDNAKNSLYLQMNSLRAEDTALYYCAKDISAVMDVPQTWGQGTMVTVSS
VL: DIQMTQSPASLPTPVGDRVTITCRASQYIQGFLNWYQQKPGKAPKLLIYDASNLETGVPSRFSGSGSGTDFTLTISSLQPEDFATYYCQQSYSTPQTFGQGTKVDIKR
notes: human IgG4 with hinge S241P
koff [1]: 1.4e-06 s⁻¹
koff [2]: 0.0577 s⁻¹

B12: 162_02_C2 human IgG4 (antibody, V domains shown)
VH: EVRLVQSGAEVKKPGASVKVSCKVSGYTLTELSMHWVRQAPGKGLEWMGGFDPEDGETIYAQKFQGRVTMTEDTSTDTAYMELSSLRSEDTAVYYCATAQKETYALTYWGQGTLVTVSS
VL: DIQMTQSPASLPTSVGDRVTITCRASQYIQGFLNWYQQKPGKAPRLLIYAASTLQDGVPSRFSGSGYGTDFTLTISSLQPEDFATYYCMHHYRAPWTFGQGTKVEIKR
notes: human IgG4 with hinge S241P; also called Antibody 162 02 C2 (derived from 2A5)
koff [1]: 1.15e-05 s⁻¹
koff [2]: 0.0017 s⁻¹

B13: 180_11_F5 human IgG4 (antibody, V domains shown)
VH: QVQLVESGGGLVQPGRSLRLSCAASGFTFDDYAMHWVRQAPGKGLEWVSGISGSGGSTYYADSVKGRFTISRDNAKNSLYLQMNSLRAEDTALYYCAKVMRTGLDTFDIWGQGTMVTVSS
VL: DIQMTQSPASLPTPVGDRVTITCRASQYIQGFLNWYQQKPGKAPKLLIYDASNLETGVPSRFSGSGSGTDFTLTISSLQPEDFATYYCQQSYSTPQTFGQGTKVDIKR
notes: human IgG4 with hinge S241P; also called Antibody 180 11 F5 (derived from B12)
koff [1]: 2.6e-05 s⁻¹
koff [2]: 1 s⁻¹

B14: 160_01_F1 human IgG4 (antibody, V domains shown)
VH: EVRLVQSGAEVKKPGASVKVSCKVSGYTLTELSMHWVRQAPGKGLEWMGGFDPEDGETIYAQKFQGRVTMTEDTSTDTAYMELSSLRSEDTAVYYCATAQSPWSGMTYWGQGTLVTVSS
VL: DIQMTQSPASLPTSVGDRVTITCRASQYIQGFLNWYQQKPGKAPRLLIYAASTLQDGVPSRFSGSGYGTDFTLTISSLQPEDFATYYCQQSYSTPWTFGQGTKVEIKR
notes: human IgG4 with hinge S241P; also called Antibody 160 01 F1 (derived from 2A5)
koff [1]: 4e-06 s⁻¹
